What was measured:
[1] = biological target: full-length recombinant tau (human) (UniProt P10636); experiment: sandwich immuno-PCR, Tau1 capture on plate, HT7-DNA conjugate detection, recombinant tau at 10000 pg/ml in synthetic serum
[2] = biological target: full-length recombinant tau (human) (UniProt P10636); experiment: sandwich immuno-PCR, Tau1 capture on plate, HT7-DNA conjugate detection, recombinant tau at 2000 pg/ml in synthetic serum
[3] = biological target: full-length recombinant tau (human) (UniProt P10636); experiment: sandwich immuno-PCR, Tau1 capture on plate, HT7-DNA conjugate detection, recombinant tau at 16 pg/ml in synthetic serum
[4] = biological target: full-length recombinant tau (human) (UniProt P10636); experiment: sandwich immuno-PCR, Tau1 capture on plate, HT7-DNA conjugate detection, recombinant tau at 80 pg/ml in synthetic serum
[5] = biological target: full-length recombinant tau (human) (UniProt P10636); experiment: sandwich immuno-PCR, Tau1 capture on plate, HT7-DNA conjugate detection, recombinant tau at 0.64 pg/ml in synthetic serum
[6] = biological target: full-length recombinant tau (human) (UniProt P10636); experiment: sandwich immuno-PCR, Tau1 capture on plate, HT7-DNA conjugate detection, recombinant tau at 3.2 pg/ml in synthetic serum
[7] = biological target: full-length recombinant tau (human) (UniProt P10636); experiment: sandwich immuno-PCR, Tau1 capture on plate, HT7-DNA conjugate detection, recombinant tau at 400 pg/ml in synthetic serum

Chain of UniProt P10636 (P10636 other isoform, or with tags, fused parts or gaps): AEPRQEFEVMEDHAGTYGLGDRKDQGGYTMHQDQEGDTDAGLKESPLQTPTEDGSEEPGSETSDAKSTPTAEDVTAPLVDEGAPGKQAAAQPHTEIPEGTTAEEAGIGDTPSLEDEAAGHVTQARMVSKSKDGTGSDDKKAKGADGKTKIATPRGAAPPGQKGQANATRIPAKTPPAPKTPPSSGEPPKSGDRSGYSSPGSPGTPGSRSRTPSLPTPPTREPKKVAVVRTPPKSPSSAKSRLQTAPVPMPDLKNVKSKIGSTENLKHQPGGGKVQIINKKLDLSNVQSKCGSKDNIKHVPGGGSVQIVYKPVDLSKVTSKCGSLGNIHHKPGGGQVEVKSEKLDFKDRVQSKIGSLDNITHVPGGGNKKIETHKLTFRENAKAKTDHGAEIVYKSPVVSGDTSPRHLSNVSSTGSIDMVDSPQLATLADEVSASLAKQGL

Work on Tau1 (antibody) yielded a delta counts [1] of 31.7 delta counts, a delta counts [2] of 29 delta counts and a delta counts [3] of 21.7 delta counts. For the same substance, the delta counts [4] was 23.6 delta counts, the delta counts [5] was 20.3 delta counts and the delta counts [6] was 20.6 delta counts. It also gave a delta counts [7] of 26.3 delta counts.
